The text below walks through data of publication PMC6814714, “Binding partner- and force-promoted changes in αE-catenin conformation probed by native cysteine labeling” (Scientific Reports, 2019).

First the molecules themselves.
B1: αE-catenin R551A (full-length) (natural protein, murine, UniProt P26231 1-906, looked up)
chain: MTAVHAGNINFKWDPKSLEIRTLAVERLLEPLVTQVTTLVNTNSKGPSNKKRGRSKKAHVLAASVEQATENFLEKGDKIAKESQFLKEELVVAVEDVRKQGDLMKSAAGEFADDPCSSVKRGNMVRAARALLSAVTRLLILADMADVYKLLVQLKVVEDGILKLRNAGNEQDLGIQYKALKPEVDKLNIMAAKRQQELKDVGNRDQMAAARGILQKNVPILYTASQACLQHPDVAAYKANRDLIYKQLQQAVTGISNAAQATASDDAAQHQGGSGGELAYALNNFDKQIIVDPLSFSEERFRPSLEERLESIISGAALMADSSCTRDDRRERIVAECNAVRQALQDLLSEYMGNAGRKERSDALNSAIDKMTKKTRDLRRQLRKAVMDHVSDSFLETNVPLLVLIEAAKNGNEKEVKEYAQVFREHANKLIEVANLACSISNNEEGVKLVRMSASQLEALCPQVINAALALAAKPQSKLAQENMDLFKEQWEKQVRVLTDAVDDITSIDDFLAVSENHILEDVNKCVIALQEKDVDGLDRTAGAIRGRAAAVIHVVTSEMDNYEPGVYTEKVLEATKLLSNTVMPRFTEQVEAAVEALSSDPAQPMDENEFIDASRLVYDGIRDIRKAVLMIRTPEELDDSDFETEDFDVRSRTSVQTEDDQLIAGQSARAIMAQLPQEQKAKIAEQVASFQEEKSKLDAEVSKWDDSGNDIIVLAKQMCMIMMEMTDFTRGKGPLKNTSDVISAAKKIAEAGSRMDKLGRTIADHCPDSACKQDLLAYLQRIALYCHQLNICSKVKAEVQNLGGELVVSGVDSAMSLIQAAKNLMNAVVQTVKASYVASTKYQKSQGMASLNLPAVSWKMKAPEKKPLVKREKQDETQTKIKRASQKKHVNPVQALSEFKAMDSI
notes: αE-catenin, murine, full length, with the point mutation R551A; Used in ITC (monomer in the cell); also called R551A αE-catenin; R551A mutant; source: E. coli BL21, purified (glutathione-agarose, TEV cleavage, Mono Q, SEC); monomer used; not shown: GST, N-terminal, cleaved
B2: vinculin D1 domain (residues 1–259) (domain or fragment, chicken, UniProt P12003 1-259, looked up)
chain: MPVFHTRTIESILEPVAQQISHLVIMHEEGEVDGKAIPDLTAPVSAVQAAVSNLVRVGKETVQTTEDQILKRDMPPAFIKVENACTKLVRAAQMLQADPYSVPARDYLIDGSRGILSGTSDLLLTFDEAEVRKIIRVCKGILEYLTVAEVVETMEDLVTYTKNLGPGMTKMAKMIDERQQELTHQEHRVMLVNSMNTVKELLPVLISAMKIFVTTKNTKSQGIEEALKNRNFTVEKMSAEINEIIRVLQLTSWDEDAWA
notes: vinculin D1 domain, residues 1–259; the methods name chicken vinculin just before it
B3: β-catenin (natural protein, murine, UniProt Q02248 1-781, looked up)
chain: MATQADLMELDMAMEPDRKAAVSHWQQQSYLDSGIHSGATTTAPSLSGKGNPEEEDVDTSQVLYEWEQGFSQSFTQEQVADIDGQYAMTRAQRVRAAMFPETLDEGMQIPSTQFDAAHPTNVQRLAEPSQMLKHAVVNLINYQDDAELATRAIPELTKLLNDEDQVVVNKAAVMVHQLSKKEASRHAIMRSPQMVSAIVRTMQNTNDVETARCTAGTLHNLSHHREGLLAIFKSGGIPALVKMLGSPVDSVLFYAITTLHNLLLHQEGAKMAVRLAGGLQKMVALLNKTNVKFLAITTDCLQILAYGNQESKLIILASGGPQALVNIMRTYTYEKLLWTTSRVLKVLSVCSSNKPAIVEAGGMQALGLHLTDPSQRLVQNCLWTLRNLSDAATKQEGMEGLLGTLVQLLGSDDINVVTCAAGILSNLTCNNYKNKMMVCQVGGIEALVRTVLRAGDREDITEPAICALRHLTSRHQEAEMAQNAVRLHYGLPVVVKLLHPPSHWPLIKATVGLIRNLALCPANHAPLREQGAIPRLVQLLVRAHQDTQRRTSMGGTQQQFVEGVRMEEIVEGCTGALHILARDVHNRIVIRGLNTIPLFVQLLYSPIENIQRVAAGVLCELAQDKEAAEAIEAEGATAPLTELLHSRNEGVATYAAAVLFRMSEDKPQDYKKRLSVELTSSLFRTEPMAWNETADLGLDIGAQGEALGYRQDDPSYRSFHSGGYGQDALGMDPMMEHEMGGHHPGADYPVDGLPDLGHAQDLMDGLPPGDSNQLAWFDTDL
notes: β-catenin, murine; also called murine β-catenin
B4: β-catenin•Ecyto complex (complex)
chain 1: B3 chain
chain 2: not shown
notes: β-catenin, murine; cytoplasmic domain of E-cadherin (Ecyto); also called E-cadherin•β-catenin complex; cadherin•β-catenin
B5: αE-catenin 82–883 (C116S) (domain or fragment, murine, UniProt P26231 82-883, looked up)
chain: ESQFLKEELVVAVEDVRKQGDLMKSAAGEFADDPSSSVKRGNMVRAARALLSAVTRLLILADMADVYKLLVQLKVVEDGILKLRNAGNEQDLGIQYKALKPEVDKLNIMAAKRQQELKDVGNRDQMAAARGILQKNVPILYTASQACLQHPDVAAYKANRDLIYKQLQQAVTGISNAAQATASDDAAQHQGGSGGELAYALNNFDKQIIVDPLSFSEERFRPSLEERLESIISGAALMADSSCTRDDRRERIVAECNAVRQALQDLLSEYMGNAGRKERSDALNSAIDKMTKKTRDLRRQLRKAVMDHVSDSFLETNVPLLVLIEAAKNGNEKEVKEYAQVFREHANKLIEVANLACSISNNEEGVKLVRMSASQLEALCPQVINAALALAAKPQSKLAQENMDLFKEQWEKQVRVLTDAVDDITSIDDFLAVSENHILEDVNKCVIALQEKDVDGLDRTAGAIRGRAARVIHVVTSEMDNYEPGVYTEKVLEATKLLSNTVMPRFTEQVEAAVEALSSDPAQPMDENEFIDASRLVYDGIRDIRKAVLMIRTPEELDDSDFETEDFDVRSRTSVQTEDDQLIAGQSARAIMAQLPQEQKAKIAEQVASFQEEKSKLDAEVSKWDDSGNDIIVLAKQMCMIMMEMTDFTRGKGPLKNTSDVISAAKKIAEAGSRMDKLGRTIADHCPDSACKQDLLAYLQRIALYCHQLNICSKVKAEVQNLGGELVVSGVDSAMSLIQAAKNLMNAVVQTVKASYVASTKYQKSQGMASLNLPAVSWKMKAPEKKPLVKREKQDETQTKIK
notes: Crystallised as a homodimer; source: E. coli BL21, purified (glutathione-agarose, TEV cleavage, Mono Q, SEC); not shown: GST, N-terminal, cleaved

The series “β-catenin•Ecyto complex” has as its target B4. The series can be described thus: ITC; VP-ITC; αE-catenin monomer (or its complex) in the cell at 8–11 μM, binding partner injected at 70–155 μM; 20 mM HEPES pH 8.0, 150 mM NaCl, 1 mM DTT; 25 °C. The note with it: both partners purified. In general terms: ITC needs no label: the signal is the heat of the interaction.
Series [1] deals with T1, αE-catenin R551A•β-catenin•Ecyto complex (murine | , UniProt P26231 1-906; Q02248 1-781; P09803 734-884, R551A).
T1 construct: αE-catenin, murine, full length, with the point mutation R551A; β-catenin, murine; cytoplasmic domain of E-cadherin (Ecyto); Ternary complex placed in the ITC cell; also called ternary E-cadherin•β-catenin•αE-catenin R551A mutant complex; source: αE-catenin R551A: E. coli BL21, purified; not shown: GST, N-terminal, cleaved; copies: + +
Described as above. The note with it: both partners purified.

The target of series [2] is B1. The series is described as above. The note with it: both partners purified.
Series [3] deals with the molecule itself. In words: crystal structure; αE-catenin 82–883 (C116S) dimer, 4.0 Å, crystals not dehydrated.

T1 sequence (P09803 734-884, stated change not applied, one chain of several): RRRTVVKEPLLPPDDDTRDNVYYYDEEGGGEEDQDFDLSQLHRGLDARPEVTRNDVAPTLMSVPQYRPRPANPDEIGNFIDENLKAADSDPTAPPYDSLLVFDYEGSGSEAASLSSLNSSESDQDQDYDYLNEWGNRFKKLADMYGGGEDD
Chain of β-catenin•Ecyto complex (P09803 734-884, one chain of several): as the sequence (P09803 734-884, stated change not applied, one chain of several) above

Take B1: binding in the series with β-catenin•Ecyto complex was put at a Kd of 14 nM.
In series [1], B2 yielded a Kd of 26 nM and a dH of 6.7 kcal/mol. Moreover, in series [2], the Kd came to 4.1 nM and the dH was 7.7 kcal/mol.
For the molecule B3, in series [2], the Kd is 78 nM and the dH was -33.3 kcal/mol.
B4: in series [2], the dH was -32.3 kcal/mol.
B5: the binding result in series [3] is given as “binds”.

By Kd is commonly meant the constant that tells how readily two partners part at equilibrium. The low end stands for a tighter complex, the high end for a looser complex.
